From patent US20050154189A1 (MAXYGEN, published 2005)

Experiments:
[1] = molecular target: T1, Soluble CTLA-4-Ig (human, UniProt P16410 36-161, FITC-conjugated in the two-colour FACS assays; unlabelled and detected with FITC goat anti-human IgG in the concentration-dependent assay); assay: two-colour FACS profile on transfected cells; score of preference for CTLA-4-Ig over CD28-Ig vs WT hB7-1
T1 construct: extracellular domain; Bought from R&D Systems; also called sCTLA-4-Ig; CTLA-4-Ig Fc; not shown: Fc portion of human IgG1

[2] = molecular target: T2, Soluble CD28-Ig (human, UniProt P10747 19-152, biotin-conjugated (NHS-biotin) in the labelled-ligand FACS assays); assay: two-colour FACS profile on transfected cells; score of preference for CD28-Ig over CTLA-4-Ig vs WT hB7-1
T2 construct: extracellular domain; Bought from R&D Systems; also called sCD28-Ig; CD28-Ig Fc; not shown: Fc portion of human IgG1

T1 sequence (P16410 36-161): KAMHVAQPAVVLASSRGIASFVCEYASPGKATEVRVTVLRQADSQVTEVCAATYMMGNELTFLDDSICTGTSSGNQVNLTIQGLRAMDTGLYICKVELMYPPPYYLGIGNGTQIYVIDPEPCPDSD

| Binder | Binding Score [1] | Binding Score [2] |
| --- | --- | --- |
| Round 2 CTLA4 A-H4-5* (ligand) ITPKSVTKRVKETVMLSCDYSTSTEELTSLRIYWQKDSKMVLAILPGKVQVWPEYKNRTITDMNDNPRIVILALRLSDKGTYTCVVQKNENGSFRREHLTSVTLSIRADFPVPSITDIGHPAPNVKRIRCSASGGFPEPRLYWLENGEELNATNTTVSQDPGTELYMISSELDFNVTNNHSIVCLIKYGELSVSQIFPWSKPKQEPPIDQLPFWVIIPVSGALVLTAVVLYCLACRHVARWKRTRRNEETVGTERLSPIYLGSAQSSG | 1 | – |
| Round 1 CD28BP-126 (ligand, also called R1clone 126; Clone 126) ITPKSVTKRVKETVMLSCDYSTSTEELTSLRIYWQKDSKMVLAILPGKVQVWPEYKNRTITDMNDNPRIVILALRLSDSGTYTCVIQKPDLKGAYKLEHLTSVRLMIRADFPVPTINDLGNPSPNIRRLICSTSGGFPRPHLYWLENGEELNATNTTVSQDPGTELYMISSELDFNVTNNHSIVCLIKYGELSVSQIFPWSKPKQEPPIDQLPFWVIIPVSGALVLTAVVLYCLACRHVARWKRTRRNEETVGTERLSPIYLGSAQSSG | – | 1 |
| Round 2 CD28A4-5* (ligand) ITPKSVTKRVKETVMLSCDYNTSTEELTSLRIYWQKDSKMVLAILPGKVQVWPEYKNRTITDMNDNPRIVILALRLSDSGTYTCVIQKPVLKGAYKLEHLTSVRLMIRADFPVPTINDLGNPSPNIRRLICSTSGGFPRPHLYWLENGEELNATNTTLSQDPETKLYMISSELDFNVTNNHSIVCLIKYGELSVSQIFPWSKPKQEPPIDQLPFWVIIPVSGALVLTAVVLYCLACRHVARWKRTRRNEETVGTERLSPIYLGSAQSSG | – | 1 |
| Round 2 CD28A6-9 (ligand) ITPKSVTKRVKETVMLSCDYNTSTEELTSLRIYWQKDSKMVLAILPGKVQVWPEYKNRTITDMNDNPRIVILALRLSDSGTYTCVIQKPVLKGAYKLEHLASVRLMIRADFPVPTINDLGNPSPNIRRLICSTSGGFPRPHLYWLENGEELNATNTTVSQDPGTELYMISSELDFNVTNNHSIVCLIKYGELSVSQIFPWSKPKQEPPIDQLPFLVIIPVSGALVLTAVVLYCLACRHVARWKRTRRNEETVGTERLSPIYLGSAQSSG | – | 1 |
| Round 2 CD28A6-1 (ligand) ITPKSVTKRVKETVMLSCDYNTSTEELTSLRIYWQKDSKMVLAILPGKVQVWPEYKNRTITDMNDNPRIVILALRLSDSGTYTCVIQKPVLKGAYKLEHLASVRLMIRADFPVPTINDLGNPSPNIRRLICSTSGGFPRPHLYWLENGEELNATNTTVSQDPETKLYMISSELDFNVTNNHSIVCLIKYGELSVSQIFPWSKPKQEPPIDQLPFRVIIPVSGALVLTAIVLYCLACRHVARWKRTRRNEETVGTERLSPIYLGSAQSSG | – | 1 |
| Round 2 CTLA4 A-C9-9 (ligand) SGITPKSVTKRVKETVMLSCDYSTSTEELTSLRIYWQKDSKMVLAILPGKVQVWPEYKNRTFPDIINNLSLMILALRLSDRGTYTCVVQKNENGSFRREHLTSVTLSIRADFPVPSITDIGHPAPNVKRIRCSASGGFPEPRLAWMEDGEELNAVNTTVDQDLDTELYSVGSELDFNVTNNHSIVCLIKYGELSVSQIFPWSKPKQEPPIDQLPFWVIIPVSGALVLTAVVLYCLARRHVARWKRTRRNEETVGTERLSPIYLGSAQSSG | 0 | – |
| Round 2 CTLA4 A-H3-6 (ligand) GISQVTKSVKEMAALSCDYNISIDELARMRIYWQKDQQMVLSIISGQVEVWPEYKNRTFPDIINNLSLMILALRLSDKGTYTCVVQKNENGSFRREHLTSVTLSIRADFPVPSINDLGNPSPNIRRLICSTSGGFPRPHLYWLENGEELNATNTTLSQDPETKLYMISSELDFNMTSNHSFLCLVKYGDLTVSQTFYWQESKPTPSANQHLTWTIIIPVSAFGISVIIAVILTCLTCRNAAIRRQRRENEVEMQSCSQSP | 1 | – |
| Round 2 CTLA4 A-B4-6 (ligand) ITPKSVTKRVKETVMLSCDYNTSTEELTSLRIYWQKDSKMVLAILPGKVQVWPEYKNRTITDMNDNPRIVILALRLSDKGTYTCVVQKNENGSFRREHLTSVTLSIRADFPVPTINDLGNPSPNIRRLICSTSGGFPRPHLYWLENGEELNATNTTLSQDPETKLYMISSELDFNMTSNHSFLCLVKYGDLTVSQTFYWQESKPTPSANQHLTWTIIIPVSAFGISVIIAVILTCLTCRNAAIRRQRRENEVEMQSCSQSP | 1 | – |
| Round 2 CTLA4 A-F10-1 (ligand) ITPKSVTKRVKETVMLSCDYNTSTEELTSLRIYWQKDSKMVLAILPGKVQVWPEYKNRTITDMNDNPRIVILALRLSDKGTYTCVVQKNENGSFRREHLTSVTLSIRADFPVPTINDLGNPSPNIRRLICSTSGGFPRPHLYWLENGEELNATNTTLSQDPETKLYMISSELDFNMTSNHSFLCLVKYGDLTVSQTLYWQESKPTPSANQHLTWTIIIPVSAFGISVIIAVILTCLTCRNAAIRRQRRENEVEMQSCSQSP | 1 | – |
| Round 2 CTLA4 A-F1-6 (ligand) ITPKSVTKRVKETVMLSCDYSTSTEELTSLRIYWQKDSKMVLAILPGKVQVWPEYKNRTITDMNDNPRIVILALRLSDKGTYTCVVQKNENGSFRREHLTSVRLMIRADFPVPTINDLGNPSPNIRRLICSTSGGFPRPHLYWLENGEELNATNTTLSQDPETKLYMISSELDFNMTSNHSFLCLVKYGDLTVSQTFYWQESKPTPSANQHLTWTIIIPVSAFGISVIIAVILTCLTCRNAAIRRQRRENEVEMQSCSQSP | 1 | – |
| Round 2 CTLA4 A-E2-6 (ligand) ITPKSVTKRVKETVMLSCDYNTSTEELTSLRIYWQKDSKMVLAILPGKVQVWPEYKNRTITDMNDNPRIVILALRLSDSGTYTCVVQKNENGSFRREHLTSVRLMIRADFPVPTINDLGNPSPNIRRLICSTSGGFPRPHLYWLENGEELNATNTTLPQDPETKLYMISSELDFNMTSNHSFLCLVKYGDLTVSQTFYWQESKPTPSANQHLTWTIIIPVSAFGISVIIAVILTCLTCRNAAIRRQRRENEVEMQSCSQSP | 1 | – |
| Round 1 CTLA4BP-7 (ligand, also called R1-7; R1 CTLA-4BP-7) VIHVTNEVKEVATLSCGHNVSGEELAQTRIYWQKEKKMVLTMMYGDMNIWPEYKNRTIFDITNNLSIVILALRPSDEGTYECVVLKYEKDAFKREHLAEVMLSVKADFPTPSITDFEIPPSNIRRIICLTSGGFPEPRLAWMKDGEELNAISTTVSQDPGTELYAVSSKLDFNMTTNHSFMCLIKYGHLRVNQTFSWNTPKQEHFPDNLLPSWAITLISVNGIFVICCLTYCFAPRCRERRRNERLRRESVRPV | 1 | – |

Other lines, results leading:

| Binding Score [1] | Binding Score [2] | Binder |
| --- | --- | --- |
| 1 | – | Round 2 CTLA4BP 2x1-e2 (ligand) VIHVTKEVKEVATLSCGHNVSDEELAQTRIHWQKEKKMVLTMMSGDMNIWPEYKNRTIFDITNNLSIVILALRPSDEGTYECVVLKYEKDAFKREHLAEVTLSVKADFPTPSISDFEIPPSNIRRIICSTSGGFPEPHLSWLENGEELNAINTTVSQDPGTELYTVSSKLDFNMTTNHSFMCLIKYGHLRVNQTFNWNTPKQEHFPDNLLPSAITLISANGIFVICCLTYCFAPRCRERRRNERLRRESIHPV |
| 2 | – | Round 2 CTLA4BP-5x2-10c (ligand) VIHVTKEVKEVATLSCGHNVSVEELAQTRIHWQKEKKMVLTMMSGDMNIWPEYKNRTIFDITNNLSIVILALRPSDEGTYECVVLKYEKDAFKREHLAEVMLSVKADFPTPSITDFEIPPSNIRRIICSTSGGFPEPHLSWLENGEELNAINTTVSQDPETELYTVSSKLDFNMTANHSFVCLIKYGHLRVNQTFNWNTPKQEHFPDNLLPSWAITLISVNGIFVICCLTYCFAPRCRERRNETLRRESVRPV |
| 1 | – | Round 2 CTLA4BP 2x4-g9 (ligand) VIHVTKEVKEVATLSCGHNVSVEELAQTRIYWQKDKKMVLTMMSGDMNIWPEYKNQTIFDITNNLSIVILALRPSDEGTYECVVLKYEKDAFKQEHLAEVMLSVKADFPTPSISDFEIPPSNIRRIICSTSGGFPEPRLAWMEDGEELNAISTTVSQDPGTELCTVSSKLDFNMTTNHSFMCLIRYGHLRVNQTFNWNTPKQEHFPDNLLPSWAITLISVKGIFVICCLTYCFAPRGRERKSNGRLRRESVHPV |
| 1 | – | Round 2 CTLA4BP 2x2-f3 (ligand) VIYVTKEVKEVATLSCGHNVSVEELAQTRIYWQKEKKMVLIMMSGDMNIWPEYKNRTIFDITNNLSIVILALRPSDEGTECVVLKYEKDAFKREHLAEVTLSVKADFPTPSISDFEIPPSNIRRIICSTSGGFPEPHLSWLENGEELNAINTTVSQDPGTELYTVSSKLDFNMTTNHSFMCLIKYGHLRVNQTFNWNTPKQEHFPDNLLPSWAITLISVNGIFVICCLTYCFAPRCRERRRNERLRRESVCPV |
| 2 | – | Round 2 CTLA4BP-5x2-11d (ligand) VIHVTKEVKEVATLSCGHNVSVEELAQTRIHWQKEKKMVLTMMSGDMNIWPEYKNRTIFDITNNLSIVILALRPSDEGTYECVVLKYEKDAFKREHLAEVMLSVKADFPTPSITDFEIPPSNIRRIICSTSGGFPEPHLFWLENGEELNAINTTVSQDPETELYTVSSKLDFNMTTDRSFVCLIKYGHLRVNQTFNWNTPKQEHFPDNLLPSWAITLISANGIFVICCLTYCFAPRCRERKSNETLRRESVRPV |
| 1 | – | Round 2 CTLA4BP 2x1-c9 (ligand) VIHVTKEVKEVATLSCGHNVSAEELAQTRIYWQKEKKMVLTMMSGDMNIWPEYKNRTIFDITNNLSIVILALRPSDEGTYECVVLEYEKDAFKREHLAEVMLSVKADFPTPSITDFEIPTSNIRRIICSTSGGFPEPRLAWMEDGEELNAISTTASQDPETELYTVSSKLDFNMTTNHSFMCLIKYGHLRVNQTFNWNTPKQEHFPDNLLPSWAITLISVNGIFVICCLTHCFAPRCRERRRNERLRRESVCPV |
| 0 | – | Round 2 CTLA4BP 2x3-h2 (ligand) VIHVTKEVKEVATLSCGHNVSVEELAQTRIYWQKEKKMVLTMMSGDMNIWPEYKNRTIFDITNNLSIVILALRPSDEGTYECVVLKYEKDAFKREHLAEVMLSVKADFPTPSISDFEIPPSNIRRIICSTPGGFPEPRLAWMEDGEELNAISTTVSQDPGTELYAVSSKLDFNMTTNHSFMCLIKYGHLRVNQTFNWNTTKQEHFPDNLLPSWAITLISVKGIFVICCLTYCFAPRWRERKSNERLRRESVRPV |
